Biological target: the molecule itself
Test: rotary-shadowing electron microscopy; chaperonin (50 µg/mL) directly immobilised on plasma-cleaned coverslip, washed with HKM buffer [25 mM HEPES-KOH (pH 7.4), 100 mM KCl, 5 mM MgCl2] and 50% glycerol, shadowed at 5° with platinum and carbon; coverslip without chaperonin as negative control

B1: αD263C/Q271C/C366S-His, the double-cysteine mutant of Thermococcus sp. strain KS-1 (T. KS-1) α chaperonin with internal hexahistidine tags (complex, UniProt P61112 1-548, looked up)
chain: MAQLSGQPVVILPEGTQRYVGRDAQRLNILAARIIAETVRTTLGPKGMDKMLVDSLGDIVVTNDGATILDKIDLQHPAAKMMVEVAKTQDKEAGDGTTTAVVIAGELLRKAEELLDQNIHPSIIIKGYALAAEKAQEILDEIAIRVDPDDEETLLKIAATSITGKNAESHKELLAKLAVEAVKQVAEKKDGKYVVDLDNIKFEKKAGEGVEESELVRGVVIDKEVVHPRMPKRVENAKIALINEALEVKKTETDAKINITSPCQLMSFLECEEKMLKDMVDHIAQTGANVVFVQKGIDDLAQHYLAKYGIMAVRRVKKSDMEKLAKATGAKIVTNVKDLTPEDLGYAEVVEERKLAGENMIFVEGSKNPKAVTILIRGGTEHVIDEVERALEDAVKVVKDVMEDGAVLPAGGAPEIELAIRLDEYAKQVGGKEALAIENFADALKIIPKTLAENAGLDTVEMLVKVISEHKNRGLGIGIDVFEGKPADMLEKGIIEPLRVKKQAIKSASEAAIMILRIDDVIAAKATKPEGGQGGGMPGGMGGMDMGM
notes: Group II chaperonin (thermosome) α subunit of Thermococcus sp. strain KS-1, amino acids 1-548, the entire α subunit amplified from plasmid pK1Eα2; hexa-histidine inserted between Val146 and Asp147; Homo-oligomeric double ring; The results call the sample of the electron microscopy BSR-CPN (cysteines 263 and 271 cross-linked by BSR, about 0.3 dye per hexadecamer); the methods name the unlabelled …
binding result: binds

— article PMC3136518, “Single-Molecule Fluorescence Polarization Study of Conformational Change in Archaeal Group II Chaperonin” (PLoS ONE, 2011)
